Laboratory results published in publication PMC3155514, “Subunit Interface Residues F129 and H294 of Human RAD51 Are Essential for Recombinase Function”.

Columns and labels:
[1] = molecular target: T1, HsRAD51(F129V) (Homo sapiens, UniProt Q06609 1-339, F129V); experiment: SPR; ADP (2.5 mM); rapid dissociation; SPR (Biacore 3000): 20 mM HEPES pH 7.5, 10% glycerol, 1 mM DTT, 1 mM MgCl2, 0.005% P-20, 2.5 mM indicated nucleotide, 150 mM KCl when indicated (text: salt similar to strand exchange), 25 C, 100 nM-1.6 uM protein; details: protein: recombinant; chain copies: 10; label: 5' biotin; single strand
T1 sequence (Q06609 whole entry F129V): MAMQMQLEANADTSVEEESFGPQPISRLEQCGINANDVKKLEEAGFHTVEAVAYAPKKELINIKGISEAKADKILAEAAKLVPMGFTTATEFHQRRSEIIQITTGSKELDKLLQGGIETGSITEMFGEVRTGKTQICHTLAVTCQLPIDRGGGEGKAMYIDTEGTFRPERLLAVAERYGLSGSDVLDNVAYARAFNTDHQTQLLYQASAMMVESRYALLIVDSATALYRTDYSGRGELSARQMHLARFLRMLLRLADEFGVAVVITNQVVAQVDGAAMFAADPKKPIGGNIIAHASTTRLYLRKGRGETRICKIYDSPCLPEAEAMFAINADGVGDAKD

[2] = molecular target: T2, HsRAD51(H294V) (Homo sapiens, UniProt Q06609 1-339, H294V); experiment: as above; details: protein: recombinant; chain copies: 10; label: 5' biotin; single strand
T2 sequence (Q06609 whole entry H294V): as the sequence (Q06609 whole entry F129V) above, with V129F, H294V counted along it

[3] = molecular target: T3, HsRAD51 wild type (Homo sapiens, UniProt Q06609 1-339); experiment: SPR; ADP (2.5 mM); SPR (Biacore 3000): 20 mM HEPES pH 7.5, 10% glycerol, 1 mM DTT, 1 mM MgCl2, 0.005% P-20, 2.5 mM indicated nucleotide, 150 mM KCl when indicated (text: salt similar to strand exchange), 25 C, 100 nM-1.6 uM protein; details: protein: recombinant; chain copies: 10; label: 5' biotin; single strand
T3 sequence (Q06609 whole entry): as the sequence (Q06609 whole entry F129V) above, with V129F counted along it

[4] = molecular target: T3, HsRAD51 wild type; experiment: SPR; ATP (2.5 mM); SPR (Biacore 3000): 20 mM HEPES pH 7.5, 10% glycerol, 1 mM DTT, 1 mM MgCl2, 0.005% P-20, 2.5 mM indicated nucleotide, 150 mM KCl when indicated (text: salt similar to strand exchange), 25 C, 100 nM-1.6 uM protein; details: protein: recombinant
[5] = molecular target: T3, HsRAD51 wild type; experiment: SPR; no nucleotide; SPR (Biacore 3000): 20 mM HEPES pH 7.5, 10% glycerol, 1 mM DTT, 1 mM MgCl2, 0.005% P-20, 2.5 mM indicated nucleotide, 150 mM KCl when indicated (text: salt similar to strand exchange), 25 C, 100 nM-1.6 uM protein; details: protein: recombinant
[6] = molecular target: T2, HsRAD51(H294V); experiment: as above; details: protein: recombinant; chain copies: 10; label: 5' biotin; single strand
[7] = molecular target: T1, HsRAD51(F129V); experiment: SPR; ADP (2.5 mM); SPR (Biacore 3000): 20 mM HEPES pH 7.5, 10% glycerol, 1 mM DTT, 1 mM MgCl2, 0.005% P-20, 2.5 mM indicated nucleotide, 150 mM KCl when indicated (text: salt similar to strand exchange), 25 C, 100 nM-1.6 uM protein; details: protein: recombinant; chain copies: 16; label: 5' biotin on strand 1; blunt
[8] = chain copies: 10, label: 5' biotin, single strand
[9] = chain copies: 16, label: 5' biotin on strand 1, blunt

| Binder | Kd [1] [nM] | Kd [2] [nM] | Kd [3] [nM] | Kd [4, 8] [nM] | Kd [5, 8] [nM] | Kd [6] [nM] | Kd [7] [nM] | Kd [4, 9] [nM] | Kd [5, 9] [nM] |
| --- | --- | --- | --- | --- | --- | --- | --- | --- | --- |
| TTTTTTTTTTTTTTTTTTTTTTTTTTTTTTTTTTTTTTTTTTTTTTTTTT (ssDNA) [dT50] | 54 | 43 | 20 | 90 | 15 | 28 |  |  |  |
| 50 bp dsDNA (dsDNA) DNA 1: TCGAGAGGGTAAACCACAATTATTGATATAAAATAGTTTTGGGTAGGCGA DNA 2: TCGCCTACCCAAAACTATTTTATATCAATAATTGTGGTTTACCCTCTCGA |  |  |  |  |  |  | 446 | 262 | 264 |
